{"source": "paper PMC3620106", "about": "“One-Step Chromatographic Purification of Helicobacter pylori Neutrophil-Activating Protein Expressed in Bacillus subtilis” (PLoS ONE, 2013)", "proteins": {"B1": {"name": "Helicobacter pylori neutrophil-activating protein (HP-NAP), recombinant, expressed in Bacillus subtilis (natural protein)", "chain": "MKTFEILKHLQADAIVLFMKVHNFHWNVKGTDFFNVHKATEEIYEEFADMFDDLAERIVQLGHHPLVTLSEAIKLTRVKEETKTSFHSKDIFKEILEDYKYLEKEFKELSNTAEKEGDKVTVTYADDQLAKLQKSIWMLQAHLA", "notes": "monomer 16.934 kDa by LC-MS (theoretical 16.933 kDa); napA was cut from pET28a-His-NAP with NdeI and XhoI and cloned into pRPA; The measured monomer mass (16.934 kDa) fits the theoretical mass of the whole untagged protein (16.933 kDa); also called recombinant HP-NAP; purified HP-NAP; source: B. subtilis DB104 harboring pRPA-NAP; copies: 12"}}, "target": "the molecule itself", "experiment": "AUC; sedimentation velocity, HP-NAP at 0.3 mg/ml in D-PBS, pH 7.2, 41,000 rpm, 20°C, SEDFIT c(s); monomer mass by LC-MS"}
{"protein": "B1", "values": [{"measurement": "stoichiometry N", "result": 12}]}
